The target in the experiment is HLA-DR10抗原 (on live Raji cells, Burkitt's lymphoma, ATCC CCL-86) (human). In words: radioimmunoassay with 131I-labelled antibody (5-110 ng/ml) on 10^6 live Raji cells, Scatchard plot, Ka = -(slope/n), n = 2.

B1: 抗HLA-DR10的特异性嵌合单克隆抗体 (131I标记, 131I-HLA-DR10) (antibody, V domains shown)
VH: QVQLKESGPGLVAPSQSLSITCTISGFSLTSYGVHWVRQPPGKGLEWLVVIWSDGSTTYNSALKSRLSISKDNSKSQVFLKMNSLQTDDTAIYYCASHYGSTLAFASWGHGTLVTVSA
VL: DIQMTQSPASLSASVGETVTIICRASVNIYSYLAWYQQKQGKSPQLLVYNAKILAEGVPSRFSGSGSGTQFSLKINSLQPEDFGSYYCQHHYGTFTFGSGTKLEIK
modifications: 131I label by the chloramine-T method; labelled residues not stated
notes: Mouse/human chimeric IgG1 kappa made in NS0-clym cells (CCTCC C200405); also called HLA-DR10单抗; chLym抗体; not shown: human immunoglobulin gamma-1 heavy chain constant region (from plasmid pSK-γ1); human immunoglobulin kappa light chain constant region (from plasmid pSK-κ)
B1 came in with a Ka of 3.36e+08 M⁻¹.

(Values after patent CN1737011A (SHANGHAI MEI EN BIO TECH CO LT, dated 2006).)
